The values that follow come from patent publication US20060045884A1, “Vaccines for autoimmune and infectious disease” (Board of Regents, priority 2004, published 2006).

For this assay, the target named is HLA-A2.1 heavy chain with I125-labeled β2-microglobulin (heterotrimer dissociation assay) (human). Description: dissociation of 125I-β2-microglobulin from the HLA-A2.1/peptide/β2m heterotrimer, HPLC gel filtration. For orientation: Size exclusion chromatography separates by hydrodynamic size, large species first.

As for “HTLV-1 Tax peptide (aa 11-19) (from UniProt P03409 11-19) (peptide; other documents disagree on this pair)”, the T1/2 is 5.56 days.
